Reference: US20130338033A1, “Diagnostic and Prognostic Markers for Metastasis” (VIRGINIA COMMONWEALTH UNIVERSITY, priority 2011, published 2013)

Assays:
IGFBP-2 = IGFBP-2 ELISA in conditioned media of FM-516 cells infected with Ad.5/3-mda-9; format: cell-based, human; details: Ad.5/3-mda-9, 1-5 μM (FIG. 4F)
HuVECs [1] = experiment: HuVEC proliferation (growth kinetics, trypan blue dye exclusion); format: cell-based, human; details: HuVECs treated with rhIGFBP-2 (FIG. 3B)
Experimental: FIG. 3 A-H. Pro-angiogenic activity of IGFBP-2. a) Top panel, an antibody-based array comparing the expression levels of regulators of angiogenesis in CM from C8161.9 con-sh and C8161.9-shmda-9 clones was performed as described in Materials and Methods. Bottom panel, graphical representation of the band intensity quantified by densitometry. b) HuVECs were cultured in the presence of recombinant human IGFBP-2 (rhIGFBP-2) protein alone or with neutralizing antibody (NA) and growth kinetics were determined by trypan blue dye exclusion as described in Materials and Methods. Data represents Mean±S.D. c, d & e) HuVECs were treated with rhIGFBP-2 with or without neutralizing antibody (NA) and migration (c), tube formation (d) and vascularization in CAM (e) were analyzed. Data represents Mean±S.D. f) C8161.9 cells were transfected with either scrambled RNA (si-con) or si-IGFBP-2 and CM were analyzed for tube formation on Matrigel (upper panel) and vascularization in CAM (lower panel). g) Pooled clones of C8161.9 cells stably expressing shIGFBP-2 were established and assessed for tumor generation ability in athymic nude mice (n=5, repeated three times). […] Tumor weight was measured at the end of the study. Data represents Mean±S.D. In panel c), d) and g), italicized letters indicate significant differences between groups assessed by Student's t-test (p<0.05). […]

HuVECs [2] = experiment: HuVEC migration through Matrigel; format: cell-based, human; details: HuVECs treated with rhIGFBP-2 (FIG. 3C)
Source text: FIG. 2A-G. Effect of mda-9/syntenin on the angiogenic phenotype of human vascular endothelial cells (HuVECs). a) Time course analysis of growth of HuVECs in co-culture with either C8161.9-con-sh or C8161.9-shmda-9 clones. b) Analysis of tube formation by HuVECs co-cultured with C8161.9-con-sh or C8161.9-shmda-9 clones on Matrigel coated plates grown in serum-starved media conditions. Left panel, photomicrograph, Right panel, graphical representation of quantification of tube formation. Data represents Mean±S.D. c) HuVEC migration towards melanoma cells. […] HuVECs migration was quantified and graphical representation is provided in the lower panel. […] The assay was scored after 18 h. Photomicrograph (Left panel) and graphical quantification of migration (Right panel) is presented. […] Left panel, photomicrograph, Right panel, graphical representation of quantitation of tube formation. […]
FIG. 3 A-H. Pro-angiogenic activity of IGFBP-2. a) Top panel, an antibody-based array comparing the expression levels of regulators of angiogenesis in CM from C8161.9 con-sh and C8161.9-shmda-9 clones was performed as described in Materials and Methods. […] Data represents Mean±S.D. c, d & e) HuVECs were treated with rhIGFBP-2 with or without neutralizing antibody (NA) and migration (c), tube formation (d) and vascularization in CAM (e) were analyzed. […] Tumor weight was measured at the end of the study. […]

HuVECs [3] = experiment: Capillary-like tube formation by HuVECs on Matrigel; format: cell-based, human; details: HuVECs treated with rhIGFBP-2 (FIG. 3D)
Experimental: Tube formation assays were performed as described previously (28) using an In Vitro Angiogenesis Assay Kit (Chemicon). The degree of network formation was quantified using the provider's instruction.

[4] = test system: chicken chorioallantoic membrane (CAM); experiment: Chorioallantoic membrane (CAM) neovascularization assay; format: in vivo; details: HuVECs treated with rhIGFBP-2 (FIG. 3E)
Experimental: To detect in vivo angiogenesis, we performed CAM assays as described (28). Either cells or CM in a collagen sponge were implanted onto the CAM at day 8 of fertilization. At day 12, CAMs were fixed with 10% formalin; the neovasculature was examined and photographed.
Fertilized chicken eggs (10 eggs per group) was incubated under routine conditions and a square window was opened in the egg shell at the third day of incubation, after removal of 2-3 ml of albumen to detach the shell from the developing CAM. The window was sealed with a glass of the same size and the eggs were returned to the incubator. Either cells or conditioned media with collagen sponge was implanted onto the CAM at day 8 of incubation. At day 12, CAMs were fixed with 10% formalin the neovasculature was examined and photographed.

VEGF-A = VEGF-A expression in HuVECs (real-time PCR, ELISA); format: cell-based, human; details: HuVECs stimulated with rhIGFBP-2 (FIG. 5A)
Experimental: (§1) FIG. 5A-G. IGFBP-2 upregulates the expression of vascular endothelial growth factor (VEGF-A) through the AKT pathway in HuVECs. a) The expression of VEGF-A mRNA (top panel) and protein (bottom panel) were measured by real-time PCR and ELISA, respectively, after treating HuVECs with the indicated doses of rhIGFBP-2. Data represents Mean±S.D. b) HuVECs were transfected with VEGF-A promoter luciferease reporter plasmid and treated with the indicated concentrations of rhIGFBP-2. 48 h after transfection, cells were harvested for luciferase assays as described in Materials and Methods. c) HuVECs (1×10^6 cells) were treated or untreated with the specified doses of rhIGFBP-2 for the indicated times and expression of pAKT and AKT was analyzed by Western blotting. d) HuVECs were pre-treated with LY294002 (30 min) and then treated with rhIGFBP-2. Top panel, analysis of the expression of pART and AKT by Western blotting. Bottom panel, analysis the expression of VEGF-A by ELISA in the CM. e) HuVECs were treated with rhIGFBP-2 together with anti-αVβ3 integrin antibody or anti-mouse IgG as control. Top panel, analysis of expression of pAKT and AKT by Western blotting. Bottom panel, analysis of expression of VEGF-A by ELISA in the CM. f & g) HuVECs were treated as in “e” and CM was used to analyze tube formation […] and neovascularization in CAM (g). […]

VEGF-A promoter = VEGF-A promoter luciferase reporter assay in HuVECs; format: cell-based, human; details: HuVECs treated with rhIGFBP-2, 48 h after transfection (FIG. 5B)
Experimental: as §1

AKT = AKT activation (pAKT Western blotting) in HuVECs; format: cell-based, human; details: rhIGFBP-2 treatment of HuVECs (FIG. 5C)
Experimental: as §1

VEGF-A promoter activity (VEGF-A promoter) | Molecule | mda-9/syntenin-induced IGFBP-2 expression (IGFBP-2) | HuVEC proliferation (HuVECs [1]) | HuVEC migration (HuVECs [2]) | HuVEC tube formation (HuVECs [3]) | vascularization in CAM [4] | VEGF-A expression, both RNA and protein (VEGF-A) | time to AKT activation (AKT) [min]
– | CC(C)(C)n1nc(-c2ccc(Cl)cc2)c2c(N)ncnc21 [PP-2] | dose-dependent decrease | – | – | – | – | – | –
dose-dependently up-regulated | rhIGFBP-2: recombinant human IGFBP-2 protein (protein, UniProt P18065 36-325, looked up) Insulin-like growth …: AEVLFRCPPCTPERLAACGPPPVAPPAAVAAVAGGARMPCAELVREPGCGCCSVCARLEGEACGVYTPRCGQGLRCYPHPGSELPLQALVMGEGTCEKRRDAEYGASPEQVADNGDDHSEGGLVENHVDSTMNMLGGGGSAGRKPLKSGMKELAVFREKVTEQHRQMGKGGKHHLGLEEPKKLRPPPARTPCQQELDQVLERISTMRLPDERGPLEHLYSLHIPNCDKHGLYNLKQCKMSLNGQRGECWCVNPNTGKLIQGAPTIRGDPECHLFYNEQQEARGVHTQRMQ | – | significantly stimulated | significantly stimulated | significantly stimulated | significant vascularization | dose-dependently up-regulated | ≤ 15
